Reference: publication PMC10053369, “Recombinant Analogs of Sea Anemone Kunitz-Type Peptides Influence P2X7 Receptor Activity in Neuro-2a Cells” (Marine Drugs, 2023)
Positions of bridges follow the written chain, without caps; N, C: chain ends. No end group written: not given here.

Experiments:
Neuro-2a cells [1] = test: [Ca2+]i in Ca2+-free medium (Fluo-8 AM); assay type: cell-based, mouse; conditions: for [Ca2+]i in Ca-free medium: ionomycin 10 μM in the presence of ATP 1 mM, or BHQ 50 μM, n = 6
Method: (§1) Neuro-2a cells were seeded in 96-well plates at a density of 4 × 10^4 cells/well and incubated in DMEM for 24 h at 37 °C, 5% CO2. Then the cells were washed twice with culture medium and loaded with 5 μM Fluo-8 AM (Abcam, Cambridge, UK) dye and 1 μM Pluronic® F-127 (Sigma-Aldrich, St. Louis, MO, USA), and incubated for 40 min at 37 °C in HBSS: 140 mM NaCl, 5 mM KCl, 0.8 mM MgCl2, 2 mM CaCl2, 10 mM glucose, 10 mM HEPES, pH 7.4. Then the cells were washed two times with the same solution but without the fluorescent dye and treated with the studied peptides for 30 min at RT in the dark. In some experiments Ca^2+-free medium was used: 140 mM NaCl, 5 mM KCl, 0.8 mM MgCl2, 10 mM glucose, 10 mM HEPES, 5 mM EGTA, pH 7.4. ATP (1 mM final concentration) was added using a microinjector (20 μL/well) 10 s later the baseline recording and the readings were taken up to 50 s in 1 s intervals. The standard P2X7 inhibitor, A438079 (Sigma-Aldrich, St. Louis, MO, USA), was used as inhibitory control. Ionomycin (Sigma-Aldrich, St. Louis, MO, USA) and BHQ were used to generate a generic calcium signal in cells. 2,5,-di(t-butyl) hydroquinone (BHQ) was synthesized and kindly provided by Dr. Polonik S.N. (PIBOC FEBRAS). Fluo-8 was excited at 485 nm, and the emission at 520 nm was measured with a PHERAstar®FS plate reader (BMG LABTECH, Ortenberg, Germany). The data were processed by MARS Data Analysis v. 3.01R2 (BMG Labtech, Ortenberg, Germany). Mean values and standard error of peak height calcium were calculated.
The following supporting information can be downloaded at: https://www.mdpi.com/article/10.3390/md21030192/s1, Figure S1: The RP-HPLC elution profiles of Kunitz peptides: HCRG1 (a), HCRG2 (b), and HCRG7 (c), on a Jupiter C4 column (Phenomenex, USA), equilibrated by 0.1% TFA, in a gradient of acetonitrile concentration (0–70%) for 70 min at 1.5 mL/min. MALDI mass spectra of the average molecular weight of peptides are shown in the insert. Black solid lines accentuate fractions from which the peptides were isolated. Figure S2: 1H NMR spectra of HCRG1 (a) and HCRG7 (b). Figure S3. […]

P2X7 in Neuro-2a cells = test: ATP-induced Ca2+ influx (Fluo-8 AM); assay type: cell-based, mouse; conditions: 1 mM ATP
Method: (§2) Neuro-2a neuroblastoma cells (ATCC® CCL-131™) were obtained from American Type Culture Collection (Manassas, VA, USA). The cells were cultivated in DMEM medium (BioloT, St. Petersburg, Russia) supplemented with 10% of fetal bovine serum (BioloT, St. Petersburg, Russia) and 1% penicillin/streptomycin (BioloT, St. Petersburg, Russia) at 37 °C and 5% CO2. Initially, cells were incubated in cultural flasks until sub-confluent (~80%). For testing, Neuro-2a cells were seeded in 96-well plates and experiments were started after 24 h.
as §1
(§3) All data were obtained in three independent replicates and calculated values were expressed as mean ± standard error of the mean (SEM). The Student’s t-test was performed using SigmaPlot 14.0 (Systat Software Inc., San Jose, CA, USA) to determine statistical significance.

Neuro-2a cells [2] = test: Cytoprotection against ATP-induced cell death (MTT assay); assay type: cell-based, mouse; conditions: 4 mM ATP, 48 h
Method: as §2
The cytoprotective effect of peptides was assessed in Neuro-2a cells using the MTT assay. In brief, an aliquot (180μL) of cell suspension with a nominal cell density of 3 × 10^4 cells/well was dispensed into 96-well plates. The cells were incubated for 24 h in a humidified atmosphere containing 5% CO2 to allow cell attachment. At the end of the preincubation period, ATP (Sigma-Aldrich, St. Louis, MO, USA) was added to the cells at a concentration of 4 mM. Studied peptides were added to the cells at concentrations of 0.1, 1.0 or 10.0 μM for 1h prior to the addition of ATP. After incubation for 48 h at 37 °C cell viability was detected using the MTT as described previously. The standard P2X7 inhibitor, A438079 (Sigma-Aldrich, St. Louis, MO, USA), at a concentration of 10 μM was used as a positive control.
as §3

[3] = tested on: cultured neurons of the dorsal horn of the spinal cord; conditions: cited from earlier work
Description: Activated P2X7 has also been reported to alter reactive oxygen species (ROS) in microglia/macrophages as was shown, for example, in primary rat microglial cells. In cultured neurons of the dorsal horn of the spinal ...

[4] = target: T1, hP2X7 (47–334 a.a., extracellular domain, 36.8 kDa) (Homo sapiens, UniProt Q99572); test: Surface plasmon resonance (Biacore 3000); assay type: binding; conditions: model: binding 1:1 (Langmuir), 25 °C, HBS-N pH 7.4, n = 3
T1 construct: hP2X7 (47–334 a.a., extracellular domain, 36.8 kDa); purchased Abbexa LTD, Cambridge, UK abx167020
T1 sequence (Q99572 47-334): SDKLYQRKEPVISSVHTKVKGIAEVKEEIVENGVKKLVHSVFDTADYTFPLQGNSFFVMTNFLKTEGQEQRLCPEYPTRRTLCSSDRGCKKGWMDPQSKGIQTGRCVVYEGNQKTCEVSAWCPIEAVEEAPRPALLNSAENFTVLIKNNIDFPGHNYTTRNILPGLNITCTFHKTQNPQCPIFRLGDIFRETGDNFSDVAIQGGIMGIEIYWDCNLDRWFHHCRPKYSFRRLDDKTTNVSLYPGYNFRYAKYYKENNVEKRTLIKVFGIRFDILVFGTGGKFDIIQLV
Method: SPR analysis was performed at 25 °C using a Biacore® 3000 optical biosensor (GE Healthcare, Chicago, IL, USA) and CM5 sensor chips. HBS-N (10 mM HEPES, 150 mM NaCl, pH 7.4) (Cytiva, Chicago, IL, USA) was used as a working buffer for the immobilization of hP2X7 (47–334 a.a., extracellular domain, 36.8 kDa) (abx167020 Abbexa LTD, Cambridge, UK). The carboxyl groups of the dextran biosensor chip were activated for 5 min by introducing a 1:1 mixture of 0.2 M 1-ethyl-3-(3-dimethylaminopropyl)carbodiimide hydrochloride (EDC) and 0.05 M N-hydroxysuccinimide (NHS) at a rate of 5 µL/min followed by a 1 min wash with HBS-N buffer at the same flow rate. Next, hP2X7 (15 μg/mL) in 10 mM sodium acetate (pH 5.0) was injected into the working channel of the biosensor for 10 min at a flow rate of 5 μL/min. The final level of immobilization was 12300 RU (12.3 ng of protein). The control channel without immobilized P2X7R was used to correct the effects of the nonspecific binding of analytes to the chip surface.
Lyophilized peptides were prepared as 100 μM stock solutions in HBS-N buffer. Experimental peptide samples were prepared in the range of 5–100 μM. The samples were injected through the channels of the biosensor (working and reference) at a flow rate of 10 μL/min for 6 min. The dissociation of the formed peptide/P2X7 complexes was recorded for at least 6 min from the moment of injection at the same flow rate after the injection of the sample. After each cycle of the biosensor, the bound analyte was removed by double injection of the regenerating solution (2 M NaCl, 1% CHAPS) at a flow rate of 30 μL/min for 30 s.
SPR sensorgrams were processed in Biacore 3000 Evaluation Software v.1.0 (GE Healthcare, Chicago, IL, USA) and BIAevaluation Software v. 4.1.1 (GE Healthcare, Chicago, IL, USA) using “1:1 binding (Langmuir)” and “two-state binding (conformational change)” data processing models.
The 1:1 (Langmuir) binding model is a 1:1 interaction model between a compound (C) and an immobilized protein (P) and is equivalent to the Langmuir isotherm for surface adsorption: C + P ↔ CP.
The two-state binding (conformational change) model describes the 1:1 binding of a compound (C) to an immobilized protein (P) followed by a conformational change in the complex (CP ↔ CP*). It is assumed that the conformationally changed complex can dissociate only by the reverse conformational change: C + P ↔ CP ↔ CP*. The final kinetic parameters were obtained from the models that best agree with the experimental curves for the minimum of the obtained value of chi2. The equations describing the models used are as follows: • (1) 1:1 (Langmuir) binding: Kd = koff/kon, where Kd is the equilibrium dissociation constant, koff is the dissociation rate constant, kon is the association rate constant. • (2) Reaction of two states (with conformational change): Kd = koff1/kon1 × (1 + kon2/koff2) − 1, where Kd is the equilibrium dissociation constant, koff1 is the dissociation rate constant, kon1 is the association rate constant, kon2 is the direct association rate constant for the CP ↔ transition CP*, koff2 is the inverse dissociation rate constant for the CP ↔ CP* transition.
The model describing the interaction was chosen according to the lowest chi2 parameter’s value. Chi2 is a measure of the average squared residual between the experimental data and the fitted curve.

[5] = target: T2, hP2X7 (47-334 a.a., extracellular domain, 36.8 kDa) (human) (UniProt Q99572)
T2 sequence: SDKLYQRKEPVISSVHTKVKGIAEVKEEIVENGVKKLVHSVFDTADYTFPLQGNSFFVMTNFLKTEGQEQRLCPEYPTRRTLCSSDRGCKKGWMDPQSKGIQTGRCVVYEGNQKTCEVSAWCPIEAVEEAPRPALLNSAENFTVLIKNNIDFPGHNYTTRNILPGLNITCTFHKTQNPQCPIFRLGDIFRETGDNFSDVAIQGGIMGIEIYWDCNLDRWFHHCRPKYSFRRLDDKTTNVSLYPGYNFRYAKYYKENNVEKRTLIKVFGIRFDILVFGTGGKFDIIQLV

[6] = target: T2, hP2X7 (47-334 a.a., extracellular domain, 36.8 kDa) (human); remark: listed apart in the source
[7] = target: T2, hP2X7 (47-334 a.a., extracellular domain, 36.8 kDa) (human); test: SPR; Biacore 3000, hP2X7 extracellular domain amine-coupled to a CM5 chip (12300 RU), peptides 5-100 uM injected as analytes at 10 uL/min for 6 min, 25 °C, HBS-N (10 mM HEPES, 150 mM NaCl, pH 7.4); fitted with 1:1 Langmuir or two-state (conformational change) model; set-up: kon2 (two-state model, step CP to CP*): unit not given here

Nc1ncnc2c1ncn2[C@@H]1O[C@H](COP(=O)(O)OP(=O)(O)OP(=O)(O)O)[C@@H](O)[C@H]1O [ATP, adenosine triphosphate, reference compound]
[Ca2+]i response to ATP in Ca2+-free medium (Neuro-2a cells [1]; 1 mM ATP, Ca2+-free medium): did not cause an increase in [Ca^2+]I | intracellular Ca2+ after ATP (P2X7 in Neuro-2a cells): strong sustained increase in [Ca^2+]I | increase in percentage of dead cells vs cells without ATP (Neuro-2a cells [2]): up to 40%

CC(C)(C)c1cc(O)c(C(C)(C)C)cc1O [BHQ, 2,5,-di(t-butyl) hydroquinone]
[Ca2+]i in Ca-free medium (Neuro-2a cells [1]): led to a significant increase in [Ca^2+]I

CC(C)(C)[N+]([O-])=Cc1ccccc1 [N-tert-butyl-α-phenylnitrone]
ATP or Bz-ATP-induced ROS production [3]: eliminated

C[C@H](CCC(=O)O)C[C@H](C)C[C@H](C)C(=O)/C=C(\O)[C@H](C)C[C@H](C)C/C=C/[C@@H](C)[C@@H](O)[C@@H](C)[C@@H](O)C[C@@H]1CC[C@@](C)([C@H]2CC[C@@](C)([C@@H](C)O)O2)O1 [ionomycin]
[Ca2+]i in Ca-free medium (Neuro-2a cells [1]): led to a significant increase in [Ca^2+]I

GSICLEPKVVGPCTAYLRRFYFDSETGKCTPFIYGGCEGNGNNFETLRACRAICRA (disulfide 4-54, 13-37, 29-50) [HCGS1.10]
Kd [4]: 26.3 µM | koff ([4]; same value printed under koff1 and koff2, average ± SD): (4.5 ± 0.52) × 10^−3 c^−1 | kon ([4]; same value printed under kon1 and kon2, average ± SD): (1.71 ± 0.19) × 10^2 mole^−1c^−1

HCGS1.10 (peptide)
decrease of the 1 mM ATP-induced rise in intracellular Ca2+ (Fluo-8AM) in mouse Neuro-2a cells with endogenous P2X7, peptide 0.1-10 uM pre-incubated 30 min; value at 0.1 uM [5]: 43.8%

HCGS1.19 (peptide)
decrease of the 1 mM ATP-induced rise in intracellular Ca2+ (Fluo-8AM) in mouse Neuro-2a cells with endogenous P2X7, peptide 0.1-1 uM pre-incubated 30 min [5]: 54.8% | 4 mM ATP-induced uptake of YO-PRO-1 by mouse Neuro-2a cells (P2X7 macropore), peptide 0.01-10 uM pre-incubated 10 min; dye uptake reduced to the printed percent [6]: 56.2%

HCGS1.36 (peptide)
decrease of the 1 mM ATP-induced rise in intracellular Ca2+ (Fluo-8AM) in mouse Neuro-2a cells with endogenous P2X7, peptide 0.1-1 uM pre-incubated 30 min [5]: 53.9% | 4 mM ATP-induced uptake of YO-PRO-1 by mouse Neuro-2a cells (P2X7 macropore), peptide 0.01-10 uM pre-incubated 10 min; dye uptake reduced to the printed percent [6]: 47.8%

HCRG1 (peptide)
koff1 (two-state model, step CP to C + P) [7]: 0.0437 c^−1 | koff2 (two-state model, step CP* to CP) [7]: 0.0015 c^−1 | kon1 (two-state model, step C + P to CP) [7]: 920 mole^−1c^−1 | kon2 (two-state model, step CP to CP*) [7]: 0.0085 | decrease of the 1 mM ATP-induced rise in intracellular Ca2+ (Fluo-8AM) in mouse Neuro-2a cells with endogenous P2X7, peptide 0.1-10 uM pre-incubated 30 min; value at 0.1 uM [5]: 57.5%

B1: APHC3 (peptide)
chain: GSICLEPKVVGPCTAYFPRFYFNSETGKCTPFIYGGCEGNGNNFETLRACRGICRA
decrease of the 1 mM ATP-induced rise in intracellular Ca2+ (Fluo-8AM) in mouse Neuro-2a cells with endogenous P2X7, peptide 0.1-10 uM pre-incubated 30 min; value at 0.1 uM [5]: 53.2%
